Consider one molecule from PMC10698143, “Phosphorylation of MIF by PIP4K2a is necessary for cilia biogenesis” (Cell Death & Disease, 2023).

The target of this assay is T1, PIP4K2a on the HuProt human protein chip (human, UniProt P48426 1-406).
T1 construct: Phosphatidylinositol-5-phosphate 4-kinase type 2 alpha, human recombinant protein of the HuProt chip; construct not described; source: human recombinant protein, highly purified, spotted on the HuProt human protein chip
T1 sequence (looked up): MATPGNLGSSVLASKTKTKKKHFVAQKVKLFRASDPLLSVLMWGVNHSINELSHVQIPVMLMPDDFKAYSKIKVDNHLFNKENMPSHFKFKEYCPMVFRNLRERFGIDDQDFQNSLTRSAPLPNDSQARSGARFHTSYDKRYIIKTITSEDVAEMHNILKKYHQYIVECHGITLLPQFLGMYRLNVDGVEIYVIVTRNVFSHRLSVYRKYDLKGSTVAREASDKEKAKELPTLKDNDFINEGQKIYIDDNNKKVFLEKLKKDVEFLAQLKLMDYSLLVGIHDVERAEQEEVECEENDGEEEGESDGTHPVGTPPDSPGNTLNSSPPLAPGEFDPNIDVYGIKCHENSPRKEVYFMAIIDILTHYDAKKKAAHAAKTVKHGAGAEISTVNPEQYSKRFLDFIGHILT
Description: peptide or protein array; HuProt human protein chip (>21,000 purified human recombinant proteins on nitrocellulose-coated slides), renatured in 50 mM Tris-HCl pH 8.0, 100 mM NaCl, 1 mM DTT, 0.3% Tween 20, blocked with 5% BSA; probed with 50 nM purified human MIF for 1 h; detected with rabbit anti-MIF and Cy3 anti-rabbit IgG; hit if SNR of both duplicates over 1.2. Particulars: both partners purified.

B1: recombinant human MIF (rhMIF) (natural protein, UniProt P14174 1-115, looked up)
chain: MPMFIVNTNVPRASVPDGFLSELTQQLAQATGKPPQYIAVHVVPDQLMAFGGSSEPCALCSLHSIGKIGGAQNRSYSKLLCGLLAERLRISPDRVYINYYDMNAANVGWNNSTFA
notes: No catalogue number printed; also called purified human MIF protein; human recombinant MIF protein; source: bought: R&D Systems
Consider B1, for which the binding result is “binds”.
